Measurements as given in US20200392228A1 (PANDION OPERATIONS, published 2020).
Residue numbers refer to the chain shown, from its start.

T1: mouse MAdCAM expressed on cells (mouse, UniProt Q61826 22-405)
T1 construct: whole, on cells
T1 sequence (looked up): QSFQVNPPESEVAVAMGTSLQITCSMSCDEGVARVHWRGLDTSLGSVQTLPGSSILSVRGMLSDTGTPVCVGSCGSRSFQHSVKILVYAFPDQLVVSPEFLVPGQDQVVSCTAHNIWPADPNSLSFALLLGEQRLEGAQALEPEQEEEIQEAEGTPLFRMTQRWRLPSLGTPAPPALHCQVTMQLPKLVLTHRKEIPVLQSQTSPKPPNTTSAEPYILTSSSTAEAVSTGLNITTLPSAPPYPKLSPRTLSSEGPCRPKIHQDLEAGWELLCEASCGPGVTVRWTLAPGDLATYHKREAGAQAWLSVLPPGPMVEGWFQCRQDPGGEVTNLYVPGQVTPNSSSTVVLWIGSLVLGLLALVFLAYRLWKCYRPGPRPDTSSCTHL

T2: human MAdCAM expressed on cells (human, UniProt Q13477 19-382)
T2 construct: whole, on cells; also called MADCAM1
T2 sequence (looked up): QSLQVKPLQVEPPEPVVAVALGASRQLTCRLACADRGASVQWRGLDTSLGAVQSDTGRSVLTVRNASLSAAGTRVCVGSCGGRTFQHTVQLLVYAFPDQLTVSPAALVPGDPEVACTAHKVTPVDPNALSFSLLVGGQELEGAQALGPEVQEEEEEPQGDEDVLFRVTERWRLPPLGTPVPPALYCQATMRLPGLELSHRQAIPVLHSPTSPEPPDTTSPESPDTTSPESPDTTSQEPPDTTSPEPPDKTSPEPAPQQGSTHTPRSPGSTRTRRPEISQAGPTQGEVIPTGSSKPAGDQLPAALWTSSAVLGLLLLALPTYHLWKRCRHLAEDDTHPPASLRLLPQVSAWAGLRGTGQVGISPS

T3: human MAdCAM protein (human, UniProt Q13477 19-317)
T3 construct: used for Octet, SPR, ELISA and plate capture; construct not described; also called recombinant human MAdCAM; soluble monomeric human MAdCAM
T3 sequence (looked up): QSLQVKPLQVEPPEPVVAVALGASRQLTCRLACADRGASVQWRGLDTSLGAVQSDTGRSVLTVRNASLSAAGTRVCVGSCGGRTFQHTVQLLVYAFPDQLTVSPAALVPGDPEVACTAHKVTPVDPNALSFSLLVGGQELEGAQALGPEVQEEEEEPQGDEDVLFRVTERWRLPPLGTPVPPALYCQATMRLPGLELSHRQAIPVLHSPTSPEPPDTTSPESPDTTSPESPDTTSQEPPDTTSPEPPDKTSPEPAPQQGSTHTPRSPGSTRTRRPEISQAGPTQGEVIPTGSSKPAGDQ

B1: MAdCAM antibody Clone ID 61 of Table 6 (scFv) (scFv)
scFv: EVQLLESGGGLVQPGGSLRLSCAASEFTFSNAWMSWVRQAPGKGLEWVASISSTSAYIDYADSVKGRFTISRDNSKNTLYLQMNSLRAEDTAVYYCAREVVGATTFDYWGQGTLVTVSSGGGGSGGGGSGGGGSGGGGSDIQMTQSPSSLSASVGDRVTITCRASQSISTWLAWYQQKPGKAPKLLIYAASSLQSGVPSRFSGSGSGTDFTLTISSLQPEDFATYYCQQANAFPPTFGQGTRLEIK
B2: MAdCAM antibody Clone ID 64 of Table 6 (scFv) (scFv)
scFv: EVQLLESGGGLVKPGGSLRLSCAASGFAFSSHWMHWVRQAPGKGLEWVAGTSGSGESRDYADFVKGRFTISRDDSKNTLYLQMNSLKTEDTAVYYCARETYYYYYMDVWGKGTTVTVSSGGGGSGGGGSGGGGSGGGGSDIQMTQSPSSLSASVGDRVTITCRASQGISNYLAWYQQKPGKAPKLLIYDAANLEGGVPSRFSGSGSGTDFTLTISSLQPEDFATYYCQQSDIFPPTFGQGTKVEIK
B3: MAdCAM antibody Clone ID 66 of Table 6 (scFv) (scFv)
scFv: EVQLLESGGGLVQPGGSLRLSCAASGFTFSSYWMHWVRQAPGKGLEWVAAISYDGKYKDYEDSVKGRFTISRDNSKNTLYLQMNSLRAEDTAVYYCARENKQWLASFDYWGQGTLVTVSSGGGGSGGGGSGGGGSGGGGSDIQMTQSPSSLSASVGDRVTITCQASQDISNFVNWYQQKPGKAPKLLIYAANLRSGVPSRFSGSGSGTDFTLTISSLQPEDFATYYCQQANSFPVTFGPGTKVDIK
B4: MAdCAM antibody Clone ID 60 of Table 6 (scFv) (scFv)
scFv: EVQLLESGGGLVQPGGSLRLSCAASGFTFDDYTMHWVRQAPGKGLEWVSDISGSGGSTYYADSVKGRFTISRDNSKNTLYLQMNSLRAEDTAVYYCAKDVVVAGTPLHFDYWGQGTLVTVSSGGGGSGGGGSGGGGSGGGGSDIQMTQSPSSLSASVGDRVTITCQASQDISNYLNWYQQKPGKAPKLLIYAASYLQSGVPSRFSGSGSGTDFTLTISSLQPEDFATYYCQQAHNYPITFGQGTRLEIK
B5: MAdCAM antibody Clone ID 65 of Table 6 (scFv) (scFv)
scFv: QVQLVQSGAEVKKPGASVKVSCKASGYTFTRHWIHWVRQAPGQGLEWMGWINVKTGGAGYAQKFQGRVTMTRDTSTSTVYMELSSLRSEDTAVYYCARESSGWYGTDVWGQGTTVTVSSGGGGSGGGGSGGGGSGGGGSDIQMTQSPSSLSASVGDRATITCRASQSISNYLAWYQQKPGKAPKLLIYAASSLQSGVPSRFSGSGSGTDFTLTISSLQPEDFATYYCQQSNSFPLTFGGGTKVEIK
B6: MAdCAM antibody Clone ID 1 of Table 6 (scFv) (scFv)
scFv: EVQLLESGGGLVQPGGSLRLSCAASGFTFSSYGMHWVRQAPGKGLEWVAVISDDGSDKYYADSVKGRFTISRDNSKNTLYLQMNSLRAEDTAVYYCTTSKYYYYYGMDVWGQGTTVTVSSGGGGSGGGGSGGGGSGGGGSDIQMTQSPSSLSASVGDRVTITCQASQDISKSLNWYQQKPGKAPKLLIYAASSLQSGVPSRFSGSGSGTDFTLTISSLQPEDFATYYCQQGYSTPLTFGGGTKVEIK
B7: MAdCAM antibody Clone ID 52 of Table 7 (IgG) (antibody, V domains shown)
VH: EVQLLESGGGLVQPGGSLRLSCAASGFTFDDYGMSWVRQAPGKGLEWVSYISSSSSYIYYADSVKGRFTISRDNSKNTLYLQMNSLRAEDTAVYYCAREIAAAGFYGMDVWGQGTTVTVSS
VL: not shown
notes: IgG format
B8: MAdCAM antibody Clone ID 44 of Table 7 (IgG) (antibody, V domains shown)
VH: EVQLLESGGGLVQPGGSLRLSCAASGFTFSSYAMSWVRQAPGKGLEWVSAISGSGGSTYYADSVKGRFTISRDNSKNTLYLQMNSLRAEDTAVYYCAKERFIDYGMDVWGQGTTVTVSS
VL: DIQMTQSPSSLSASVGDRVTITCQASQDISNYLNWYQQKPGKAPKLLIYAASSLQSGVPSRFSGSGSGTDFTLTISSLQPEDFATYYCQQTYSGWTFGPGTKVDIK
notes: IgG format
B9: MAdCAM antibody Clone ID 57 of Table 7 (IgG) (antibody, V domains shown)
VH: EVQLLESGGGLVQPGGSLRLSCAASGFSVSSNYMSWVRQAPGKGLEWVAGISYDGSSKPYADSVKGRFTISRDNSKNTLYLQMNSLRAEDTAVYYCARSRGIAARPLQHWGQGTLVTVSS
VL: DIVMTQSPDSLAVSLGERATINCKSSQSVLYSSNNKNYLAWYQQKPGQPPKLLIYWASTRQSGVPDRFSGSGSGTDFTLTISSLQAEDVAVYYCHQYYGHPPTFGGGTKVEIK
notes: IgG format
B10: MAdCAM antibody Clone ID 37 of Table 7 (IgG) (antibody, V domains shown)
VH: EVQLLESGGGLVQPGGSLRLSCAASGFTFSDYGMPWVRQAPGKGLEWVSAISGSGGSTYYADSVKGRFTISRDNSKNTLYLQMNSLRAEDTAVYYCARDGGWQPAAILDYWGQGTLVTVSS
VL: DIQMTQSPSSLSASVGDRVTITCRASQGISNNLNWYQQKPGKAPKLLIYDASNLETGVPSRFSGSGSGTDFTLTISSLQPEDFATYYCQQSYSTPLTFGQGTKVEIK
notes: IgG format
B11: MAdCAM antibody Clone ID 38 of Table 7 (IgG) (antibody, V domains shown)
VH: QVQLVQSGAEVKKPGASVKVSCKASGYTFTDYFLHWVRQAPGQGLEWMGWMNPTSGNTGYAQKFQGRVTMTRDTSTSTVYMELSSLRSEDTAVYYCAREGEGSGFDYWGQGTLVTVSS
VL: B10 VL with S30N, N31S, N32W, N34A, Q100G
notes: IgG format
B12: MAdCAM antibody Clone ID 59 of Table 7 (IgG) (antibody, V domains shown)
VH: B10 VH with T28S, P35H
VL: B10 VL with Q100G
notes: IgG format
B13: MAdCAM antibody Clone ID 34 of Table 7 (IgG) (antibody, V domains shown)
VH: QVQLVQSGAEVKKPGASVKVSCKASGYTFTGYYIHWVRQAPGQGLEWMGWMNPNSGNTGYAQKFQGRVTMTRDTSTSTVYMELSSLRSEDTAVYYCARDPGFLGYCSGGSCYDGWFDPWGQGTLVTVSS
VL: DIQMTQSPSSLSASVGDRVTITCRASQSISSYLHWYQQKPGKAPKLLIYAASSLQSGVPSRFSGSGSGTDFTLTISSLQPEDFATYYCQQSYTAPYTFGQGTKLEIK
notes: IgG format
B14: MAdCAM antibody Clone ID 41 of Table 7 (IgG) (antibody, V domains shown)
VH: QVQLVQSGAEVKKPGASVKVSCKASGYTFTSYYMHWVRQAPGQGLEWMGIINPSGGSTSYAQKFQGRVTMTRDTSTSTVYMELSSLRSEDTAVYYCARDTGYSYGRYYYYGMDVWGQGTLVTVSS
VL: B10 VL with G28S, S30G, N31R, N32W, N34A, E55Q, T56S, T94I, L96I
notes: IgG format
B15: MAdCAM antibody Clone ID 39 of Table 7 (IgG) (antibody, V domains shown)
VH: QVQLVQSGAEVKKPGASVKVSCKASGYTFTSYYMHWVRQAPGQGLEWMAWMNPNSGNTGYAQKFQGRVTMTRDTSTSTVYMELSSLRSEDTAVYYCARDYDFWSGSLGYWGQGTLVTVSS
VL: B10 VL with N32Y, N34A, D50A, N53S, E55Q, T56S, L96W
notes: IgG format
B16: MAdCAM antibody Clone ID 43 of Table 7 (IgG) (antibody, V domains shown)
VH: QVQLVQSGAEVKKPGASVKVSCKASGYTFTSYGISWVRQAPGQGLEWMGWMHPKSGDTGLTQKFQGRVTMTRDTSTSTVYMELSSLRSEDTAVYYCARDTPYYYYGMDVWGQGTTVTVSS
VL: B13 VL with Y32W, H34A, T93S, A94V, Y96I, L104V
notes: IgG format
B17: MAdCAM antibody Clone ID 42 of Table 7 (IgG) (antibody, V domains shown)
VH: QVQLVQSGAEVKKPGASVKVSCKASGYTLTDYYMHWVRQAPGQGLEWMGIINPSGGSTSYAQKFQGRVTMTRDTSTSTVYMELSSLRSEDTAVYYCAREEYSSSSGYFDYWGQGTLVTVSS
VL: B10 VL with N31S, N32W, N34A, D50A, N53S, E55Q, T56S
notes: IgG format

Molecular target: T1, mouse MAdCAM expressed on cells
Experiment: cell binding

Row | binding result | Binder
1 | binds | B1
2 | binds | B2
3 | binds | B3
4 | binds | B4
5 | binds | B5

Molecular target: T2, human MAdCAM expressed on cells
Experiment: cell binding

Row | binding result | Binder
6 | binds | B6
7 | binds | B1
8 | binds | B2
9 | binds | B3
10 | binds | B4
11 | binds | B5

Molecular target: T1, mouse MAdCAM expressed on cells
Experiment: cell binding
Remark: another data set of the same source

Row | binding result | Binder
12 | no binding | B7
13 | no binding | B8
14 | no binding | B9
15 | no binding | B10
16 | no binding | B11
17 | no binding | B12
18 | no binding | B13
19 | no binding | B14
20 | no binding | B15
21 | no binding | B16
22 | no binding | B17

Molecular target: T2, human MAdCAM expressed on cells
Experiment: cell binding
Remark: another data set of the same source

Row | binding result | Binder
23 | binds | B7
24 | binds | B8
25 | binds | B9
26 | binds | B10
27 | binds | B11
28 | binds | B12
29 | binds | B13
30 | binds | B14
31 | binds | B15
32 | binds | B16
33 | binds | B17

Molecular target: T3, human MAdCAM protein
Experiment: Octet

Row | binding result | Binder
34 | binds | B6
35 | binds | B1
36 | binds | B2
37 | binds | B3
38 | binds | B4
39 | binds | B5
